According to patent publication US20220227815A1, “COMPOSITIONS AND METHODS USEFUL IN TREATING BRAIN DISEASES” (University of Kansas, priority 2019, published 2022):

Tested on: EGR1, ARC, and MAPK1 mRNA transcripts
Experiment: Fluorescence in situ hybridization of mRNA transcripts in APP/PS1 hippocampus CA1
Format: in vivo, transgenic APP/PS1 mice
Conditions: CA1 region of hippocampus; all three groups compared
Protocol: Coronal brain sections (10 μm thickness) were washed three times in PBS before mounting on gelatin-coated glass slides (Superfrost Plus, Thermo Fisher Scientific). Tissues were allowed to dry at RT and were then stored at −20° C. until use. Fluorescence in situ hybridization (FISH) was performed using Multiplex Reagent Kit V2 from RNAscope® Technology 2.0 (Advanced Cell Diagnostics (ACD), Hayward, Calif.). See Vasquez, J. J., Hussien, R., Aguilar-Rodriguez, B., Junger, H., Dobi, D., Henrich, T. J., Thanh, C., Gibson, E., Hogan, L. E., McCune, J., Hunt, P. W., Stoddart, C. A.,Laszik, Z. G., Elucidating the Burden of HIV in Tissues Using Multiplexed Immunofluorescence and In Situ Hybridization: Methods for the Single-Cell Phenotypic Characterization of Cells Harboring HIV In Situ. J Histochem Cytochem 2018; 66:427-46; Gershon, T. R., Crowther, A. J., Liu, H., Miller, C. R.,Deshmukh, M., Cerebellar granule neuron progenitors are the source of Hk2 in the postnatal cerebellum. Cancer Metab 2013; 1:15; and Smith, P. A., Schmid, C., Zurbruegg, S., Jivkov, M., Doelemeyer, A., Theil, D., Dubost, V., Beckmann, N., Fingolimod inhibits brain atrophy and promotes brain-derived neurotrophic factor in an animal model of multiple sclerosis. J Neuroimmunol 2018; 318:103-13. Mounted tissue sections were deparaffinized using xylene and serially dehydrated in 50%, 70%, 95%, and 100% ethanol for 5 min each. […]

B1: BDNF: recombinant brain-derived neurotrophic factor (13 kDa monomer), Peprotech (protein, UniProt P23560 19-247, looked up)
Neurotrophic factor BDNF …: APMKEANIRGQGGLAYPGVRTHGTLESVNGPKAGSRGLTSLADTFEHVIEELLDEDQKVRPNEENNKDADLYTSRVMLSSQVPLEPPLLFLLEEYKNYLDAANMSMRVRRHSDPARRGELSVCDSISEWVTAADKKTAVDMSGGTVTVLEKVPVSKGQLKQYFYETKCNPMGYTKEGCRGIDKRHWNSQCRTTQSYVRALTMDSKKRIGWRFIRIDTSCVCTLTIKRGR
MAPK1 expression: no significant differences
